# What was measured:
# Experiment in all cases: cell-based or functional assay
# [1] = biological target: HIV-1 envelope glycoprotein (Env) of isolate MGRM-A-001, clade A (HIV-1)
# [2] = biological target: HIV-1 Env of isolate APV_17, clade B, on pseudovirus (HIV-1)
# [3] = biological target: HIV-1 Env of pseudovirus MGRM-F1-020 (HIV-1)
# [4] = biological target: HIV-1 Env of pseudovirus MGRM-F1-008 (HIV-1)
# [5] = biological target: HIV-1 Env of isolate MGRM-D-012 (clade D pseudovirus) (HIV-1)
# [6] = biological target: HIV-1 Env of isolate 92RW024 (clade A pseudovirus) (HIV-1)
# [7] = biological target: HIV-1 Env of pseudovirus CMU02 (clade CRF01_AE) (HIV-1)
# [8] = biological target: HIV-1 Env of isolate 6535.3 (Acute), clade B, on pseudovirus (HIV-1)
# [9] = biological target: HIV-1 Env of pseudovirus MGRM-F1-022 (HIV-1)
# [10] = biological target: HIV-1 Env of pseudovirus MGRM-F1-010 (HIV-1)
# [11] = biological target: HIV-1 Env of isolate 92UG001 (clade D pseudovirus) (HIV-1)
# [12] = biological target: HIV-1 APV-17 envelope glycoprotein (Env) on pseudovirus (HIV-1)
# [13] = biological target: HIV-1 IAVI-C22 envelope glycoprotein (Env) on pseudovirus (HIV-1)
# [14] = biological target: HIV-1 93UG077 envelope glycoprotein (Env) on pseudovirus (HIV-1)
# [15] = biological target: HIV-1 envelope glycoprotein (Env) of isolate MGRM-A-011, clade A (HIV-1)
# [16] = biological target: HIV-1 Env of isolate MGRM-D-013 (clade D pseudovirus) (HIV-1)
# [17] = biological target: HIV-1 94UG114 envelope glycoprotein (Env) on pseudovirus (HIV-1 (isolate 94UG114, clade D))
# [18] = biological target: HIV-1 Env of isolate 97ZA012 (subtype C) (HIV-1)
# [19] = biological target: HIV-1 Env of isolate 92WR020 (HIV-1)
# [20] = biological target: HIV-1 Env of isolate MGRM-A-003 (HIV-1)
# [21] = biological target: HIV-1 Env of isolate 92TH021 (pseudovirus) (HIV-1)
# [22] = biological target: HIV-1 Env of isolate MGRM-A-001 (HIV-1)
# [23] = biological target: HIV-1 envelope glycoprotein (Env) of isolate MGRM-C-006 (HIV-1)
# [24] = biological target: HIV-1 Env of isolate MG RM-D-002 (HIV-1)
# [25] = biological target: HIV-1 Env of isolate MGRM-Chronic-B-017 (subtype B) (HIV-1)
# [26] = biological target: HIV-1 APV13 Env (pseudovirus, clade B) (HIV-1)
# [27] = biological target: HIV-1 Env of pseudovirus isolate MGRM-G-025 (HIV-1)
# [28] = biological target: HIV-1 Env of isolate APV-13 (HIV-1)
# [29] = biological target: HIV-1 Env of isolate NL43 (subtype B) (HIV-1)
# [30] = biological target: HIV-1 Env of isolate MGRM-AG-006 (subtype AG) (HIV-1)
# [31] = biological target: HIV-1 Env of isolate MG RM-D-011 (HIV-1)
# [32] = biological target: HIV-1 Env of isolate MGRM-AE-005 (subtype AE) (HIV-1)
# [33] = biological target: HIV-1 envelope glycoprotein (Env) of isolate MGRM-C-023 (HIV-1)
# [34] = biological target: HIV-1 Env of isolate 92UG046 (HIV-1)
# 5329_C19 (PGT-136) (antibody), sequence (VH): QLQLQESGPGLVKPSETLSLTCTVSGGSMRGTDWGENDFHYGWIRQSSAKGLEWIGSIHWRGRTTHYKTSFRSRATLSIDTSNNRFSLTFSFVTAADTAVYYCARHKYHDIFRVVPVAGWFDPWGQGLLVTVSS
# 5329_C19 (PGT-136) (antibody), sequence (VL): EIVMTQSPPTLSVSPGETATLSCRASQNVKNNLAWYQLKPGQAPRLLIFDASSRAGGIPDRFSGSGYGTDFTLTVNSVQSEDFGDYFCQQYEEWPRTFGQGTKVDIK
# 1443_C16 (PG16) (TCN-116) (antibody), sequence (VH): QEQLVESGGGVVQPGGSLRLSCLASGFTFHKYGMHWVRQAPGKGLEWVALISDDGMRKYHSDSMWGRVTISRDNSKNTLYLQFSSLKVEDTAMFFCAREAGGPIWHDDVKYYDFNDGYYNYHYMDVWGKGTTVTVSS
# 1443_C16 (PG16) (TCN-116) (antibody), sequence (VL): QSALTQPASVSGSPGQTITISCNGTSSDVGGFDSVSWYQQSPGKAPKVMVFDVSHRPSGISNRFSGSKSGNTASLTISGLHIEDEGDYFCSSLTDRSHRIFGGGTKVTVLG
Substance,"IC50 (µg/ml), pseudovirus neutralization [1]","IC50 (µg/ml), pseudovirus neutralization [2]","IC50 (µg/ml), pseudovirus neutralization [3]","IC50 (µg/ml), pseudovirus neutralization [4]","IC50 (µg/ml), pseudovirus neutralization [5]","IC50 (µg/ml), pseudovirus neutralization [6]",IC50 [7],"IC50 (µg/ml), pseudovirus neutralization [8]","IC50 (µg/ml), pseudovirus neutralization [9]","IC50 (µg/ml), pseudovirus neutralization [10]","IC50 (µg/ml), pseudovirus neutralization [11]","IC50, pseudovirus neutralization [12]","IC50, pseudovirus neutralization [13]","IC50, pseudovirus neutralization [14]","IC50 (µg/ml), pseudovirus neutralization [15]","IC50 (µg/ml), pseudovirus neutralization [16]","IC50 (µg/ml), pseudovirus neutralization [17]",IC50 neutralization [18],IC50 [19],IC50 [20],other results
4E10 (antibody),15.1 µg/mL,10.5 µg/mL,0.66 µg/mL,2.75 µg/mL,1.13 µg/mL,8.88 µg/mL,0.72 mg/L,1.23 µg/mL,1.01 µg/mL,3.69 µg/mL,13.6 µg/mL,5.1 mg/L,1.02 mg/L,11.2 mg/L,2.88 µg/mL,5.38 µg/mL,9.72 µg/mL,–,–,–,–
5147_N06 (PGT-130) (antibody),–,–,–,–,–,–,–,–,–,–,–,–,–,–,–,–,–,1.32 mg/L,0.039 mg/L,> 50 mg/L,"Polyclonal Transfectant Neutralization Index [21]: 4.2; Primary Neutralization Index (B cell culture supernatant) [21]: 538; IC50 [22]: > 50 mg/L; IC50 (µg/mL), pseudovirus neutralization [23]: 0.095 µg/mL; IC50 (µg/mL), pseudovirus neutralization [24]: 0.869 µg/mL; IC50 neutralization [25]: > 50 mg/L; IC50 neutralization [26]: 0.0345 mg/L; IC50 (µg/mL), pseudovirus neutralization [27]: 8.45 µg/mL; neutralization IC50 [28]: 0.052 mg/L; IC50 neutralization [29]: > 50 mg/L; IC50 (µg/mL), pseudovirus neutralization [30]: 0.009 µg/mL; IC50 (µg/mL), pseudovirus neutralization [31]: 0.019 µg/mL; IC50 (µg/mL), pseudovirus neutralization [32]: 0.006 µg/mL; IC50 (µg/mL), pseudovirus neutralization [33]: 0.151 µg/mL; IC50 (µg/mL), pseudovirus neutralization [34]: > 50 µg/mL"
1443_C16 (PG16) (TCN-116) (antibody),> 50 µg/mL,24.8 µg/mL,4.35 µg/mL,> 50 µg/mL,0.35 µg/mL,0.08 µg/mL,43.6 mg/L,36.9 µg/mL,0.08 µg/mL,0.01 µg/mL,> 50 µg/mL,> 50 mg/L,0.0687 mg/L,> 50 mg/L,0.24 µg/mL,0.11 µg/mL,> 50 µg/mL,–,–,–,–
5343_B08 (PGT-135) (antibody),–,–,–,–,–,–,–,–,–,–,–,–,–,–,–,–,–,> 50 mg/L,0.067 mg/L,> 50 mg/L,"IC50 [22]: > 50 mg/L; IC50 (µg/mL), pseudovirus neutralization [23]: > 50 µg/mL; IC50 (µg/mL), pseudovirus neutralization [24]: > 50 µg/mL; IC50 neutralization [25]: > 50 mg/L; IC50 neutralization [26]: 0.545 mg/L; IC50 (µg/mL), pseudovirus neutralization [27]: 0.592 µg/mL; neutralization IC50 [28]: 0.716 mg/L; IC50 neutralization [29]: 8.03 mg/L; IC50 (µg/mL), pseudovirus neutralization [30]: 17.9 µg/mL; IC50 (µg/mL), pseudovirus neutralization [31]: 23.5 µg/mL; IC50 (µg/mL), pseudovirus neutralization [32]: > 50 µg/mL; IC50 (µg/mL), pseudovirus neutralization [33]: 0.061 µg/mL; IC50 (µg/mL), pseudovirus neutralization [34]: > 50 µg/mL"
b12 (antibody),> 50 µg/mL,> 50 µg/mL,> 50 µg/mL,> 50 µg/mL,0.13 µg/mL,> 50 µg/mL,29.3 mg/L,1.93 µg/mL,> 50 µg/mL,> 50 µg/mL,1.01 µg/mL,> 25 mg/L,3.6 mg/L,41.1 mg/L,4.01 µg/mL,> 50 µg/mL,> 50 µg/mL,–,–,–,–
5329_C19 (PGT-136) (antibody),–,–,–,–,–,–,–,–,–,–,–,–,–,–,–,–,–,> 50 mg/L,2.33 mg/L,> 50 mg/L,"IC50 [22]: > 50 mg/L; IC50 (µg/mL), pseudovirus neutralization [23]: > 50 µg/mL; IC50 (µg/mL), pseudovirus neutralization [24]: > 50 µg/mL; IC50 neutralization [25]: > 50 mg/L; IC50 neutralization [26]: > 10 mg/L; IC50 (µg/mL), pseudovirus neutralization [27]: > 50 µg/mL; neutralization IC50 [28]: > 50 mg/L; IC50 neutralization [29]: 27.7 mg/L; IC50 (µg/mL), pseudovirus neutralization [30]: 29.1 µg/mL; IC50 (µg/mL), pseudovirus neutralization [31]: > 50 µg/mL; IC50 (µg/mL), pseudovirus neutralization [32]: > 50 µg/mL; IC50 (µg/mL), pseudovirus neutralization [33]: 3.2 µg/mL; IC50 (µg/mL), pseudovirus neutralization [34]: > 50 µg/mL"
2F5 (antibody),> 50 µg/mL,4.61 µg/mL,0.59 µg/mL,1.61 µg/mL,1.7 µg/mL,8.22 µg/mL,0.6 mg/L,2.76 µg/mL,1.26 µg/mL,14.6 µg/mL,13 µg/mL,2 mg/L,> 50 mg/L,4.45 mg/L,> 50 µg/mL,2.12 µg/mL,> 50 µg/mL,–,–,–,–
2G12 (antibody),> 50 µg/mL,> 50 µg/mL,> 50 µg/mL,> 50 µg/mL,> 50 µg/mL,> 50 µg/mL,> 50 mg/L,3.85 µg/mL,> 50 µg/mL,–,> 50 µg/mL,> 50 mg/L,> 50 mg/L,> 50 mg/L,> 50 µg/mL,> 50 µg/mL,13.9 µg/mL,–,–,–,–
1495_C14 (PGC14) (antibody),> 50 µg/mL,> 50 µg/mL,> 50 µg/mL,> 50 µg/mL,> 50 µg/mL,> 50 µg/mL,> 50 mg/L,35 µg/mL,> 50 µg/mL,> 50 µg/mL,> 50 µg/mL,> 50 mg/L,9.5 mg/L,> 50 mg/L,> 50 µg/mL,> 50 µg/mL,> 50 µg/mL,–,–,–,–

# From patent US20250320281A1
